Source: patent US20100129870

Tests used:
Assay in all cases: filter
[1] = molecular target: ΔNS3 protein (NS3 protease domain) (Hepatitis C virus) (UniProt P26662); conditions: 100 nM protein; 4.9 at 50 nM; 0.1 without protein; Tris pH 7.8, Mg2+, Ca2+
[2] = molecular target: bovine serum albumin (BSA) (Bos taurus) (UniProt P02769); conditions: 100 nM BSA
[3] = molecular target: T1, myeloperoxidase (MPO) (Homo sapiens) (UniProt P05164); conditions: 100 nM MPO; 2.66 at 50 nM; 1.49 without protein
T1 sequence: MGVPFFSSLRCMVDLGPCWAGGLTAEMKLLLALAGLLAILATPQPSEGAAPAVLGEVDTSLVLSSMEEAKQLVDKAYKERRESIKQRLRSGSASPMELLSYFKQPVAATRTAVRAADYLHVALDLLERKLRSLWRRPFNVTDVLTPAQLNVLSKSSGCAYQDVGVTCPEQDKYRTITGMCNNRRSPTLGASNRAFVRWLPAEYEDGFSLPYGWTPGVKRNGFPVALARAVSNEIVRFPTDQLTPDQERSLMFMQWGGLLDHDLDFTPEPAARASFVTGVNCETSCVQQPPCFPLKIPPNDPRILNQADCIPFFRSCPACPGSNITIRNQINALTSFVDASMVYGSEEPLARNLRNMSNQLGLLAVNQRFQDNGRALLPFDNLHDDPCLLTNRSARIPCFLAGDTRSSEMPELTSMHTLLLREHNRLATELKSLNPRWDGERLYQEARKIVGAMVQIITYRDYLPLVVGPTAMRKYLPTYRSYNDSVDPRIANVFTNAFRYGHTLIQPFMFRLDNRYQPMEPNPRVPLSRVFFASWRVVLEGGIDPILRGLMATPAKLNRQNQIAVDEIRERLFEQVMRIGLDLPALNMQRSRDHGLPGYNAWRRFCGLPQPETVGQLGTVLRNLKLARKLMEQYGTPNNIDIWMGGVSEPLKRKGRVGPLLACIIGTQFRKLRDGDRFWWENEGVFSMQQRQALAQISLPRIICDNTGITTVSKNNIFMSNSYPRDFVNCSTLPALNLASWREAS

bovine serum albumin (BSA) (Bos taurus), sequence (P02769 25-607): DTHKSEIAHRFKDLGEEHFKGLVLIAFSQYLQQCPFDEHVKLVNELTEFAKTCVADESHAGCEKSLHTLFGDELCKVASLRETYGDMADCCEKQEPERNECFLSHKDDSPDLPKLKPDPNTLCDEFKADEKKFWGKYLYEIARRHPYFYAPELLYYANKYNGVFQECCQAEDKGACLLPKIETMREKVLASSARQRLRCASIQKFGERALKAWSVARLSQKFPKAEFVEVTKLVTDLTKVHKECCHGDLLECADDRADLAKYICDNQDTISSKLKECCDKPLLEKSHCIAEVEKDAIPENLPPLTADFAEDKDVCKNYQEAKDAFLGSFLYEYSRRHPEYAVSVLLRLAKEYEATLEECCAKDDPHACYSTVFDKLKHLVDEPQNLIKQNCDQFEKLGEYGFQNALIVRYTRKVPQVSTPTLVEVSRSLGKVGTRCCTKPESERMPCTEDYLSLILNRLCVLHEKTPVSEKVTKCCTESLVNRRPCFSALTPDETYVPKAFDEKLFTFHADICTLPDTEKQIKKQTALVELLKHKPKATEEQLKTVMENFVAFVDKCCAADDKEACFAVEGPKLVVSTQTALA

Sequence	binding signal [1] [% bound]	binding signal [2] [% bound]	binding signal [3] [% bound]
GGGAGGUGGAACUGAAGGAGANNNNNNNNNNNNNNNNNNNNNNNNNNNNNNNNNNNNNNNNNNNNNNNNNNNNNNNACUUCGCAAUCGCUCUACGCA [RNA pool (generation zero)]	8.1		
GGUAGAUACGAUGGANNNNNNNNNNNNNNNNNNNNNNNNNNNNNNCAUGACGCGCAGCCA [RNA pool 2]		1.86	1.7
